According to IntAct's records for PubMed 29039417:

B1: BBSome complex member BBS1 (Homo sapiens), Q8NFJ9 (parent)
chain: MAAASSSDSDACGAESNEANSKWLDAHYDPMANIHTFSACLALADLHGDGEYKLVVGDLGPGGQQPRLKVLKGPLVMTESPLPALPAAAATFLMEQHEPRTPALALASGPCVYVYKNLRPYFKFSLPQLPPNPLEQDLWNQAKEDRIDPLTLKEMLESIRETAEEPLSIQSLRFLQLELSEMEAFVNQHKSNSIKRQTVITTMTTLKKNLADEDAVSCLVLGTENKELLVLDPEAFTILAKMSLPSVPVFLEVSGQFDVEFRLAAACRNGNIYILRRDSKHPKYCIELSAQPVGLIRVHKVLVVGSTQDSLHGFTHKGKKLWTVQMPAAILTMNLLEQHSRGLQAVMAGLANGEVRIYRDKALLNVIHTPDAVTSLCFGRYGREDNTLIMTTRGGGLIIKILKRTAVFVEGGSEVGPPPAQAMKLNVPRKTRLYVDQTLREREAGTAMHRAFQTDLYLLRLRAARAYLQALESSLSPLSTTAREPLKLHAVVQGLGPTFKLTLHLQNTSTTRPVLGLLVCFLYNEALYSLPRAFFKVPLLVPGLNYPLETFVESLSNKGISDIIKVLVLREGQSAPLLSAHVNMPGSEGLAAA
partner: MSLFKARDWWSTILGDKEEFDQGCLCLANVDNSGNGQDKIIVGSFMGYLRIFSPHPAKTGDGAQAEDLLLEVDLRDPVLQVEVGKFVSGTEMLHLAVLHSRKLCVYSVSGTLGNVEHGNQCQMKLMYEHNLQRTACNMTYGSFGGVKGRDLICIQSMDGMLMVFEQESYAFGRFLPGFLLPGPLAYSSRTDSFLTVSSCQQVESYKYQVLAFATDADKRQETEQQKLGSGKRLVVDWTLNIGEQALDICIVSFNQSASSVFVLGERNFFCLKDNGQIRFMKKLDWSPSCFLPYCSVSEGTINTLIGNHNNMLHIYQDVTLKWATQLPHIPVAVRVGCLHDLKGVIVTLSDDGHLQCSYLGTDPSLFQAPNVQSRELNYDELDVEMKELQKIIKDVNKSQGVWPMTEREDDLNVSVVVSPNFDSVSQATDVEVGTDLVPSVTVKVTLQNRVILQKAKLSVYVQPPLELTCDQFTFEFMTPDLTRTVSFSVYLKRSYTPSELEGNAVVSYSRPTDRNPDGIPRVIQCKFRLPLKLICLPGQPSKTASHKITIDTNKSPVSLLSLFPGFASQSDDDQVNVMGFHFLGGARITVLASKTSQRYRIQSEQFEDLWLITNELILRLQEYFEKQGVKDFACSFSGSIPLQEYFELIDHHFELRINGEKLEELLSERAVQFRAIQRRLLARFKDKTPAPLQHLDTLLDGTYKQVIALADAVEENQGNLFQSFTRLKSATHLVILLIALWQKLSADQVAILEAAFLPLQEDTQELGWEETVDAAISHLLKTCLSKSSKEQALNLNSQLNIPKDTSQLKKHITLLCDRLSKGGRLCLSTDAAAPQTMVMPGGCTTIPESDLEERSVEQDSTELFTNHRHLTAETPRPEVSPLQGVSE

Variants of: B1
Settings: with pthb1_human BBS9, Q3SYG4

Effect of a mutation on the interaction, with no effect:
MAAASSSDSDACGAESNEANSKWLDAHYDPMANIHTFSACLALADLHGDGEYKLVVGDLGPGGQQPRLKVLKGPLVMTESPLPALPAAAATFLMEQHEPRTPALALASGPCVYVYKNLRPYFKFSLPQLPPNPLEQDLWNQAKEDRIDPLTLKEMLESIRETAEEPLSIQSLRFLQLELSEMEAFVNQHKSNSIKRQTVITTMTTLKKNLADEDAVSCLVLGTENKELLVLDPEAFTILAKMSLPSVPVFLEVSGQFDVEFRLAAACRNGNIYILRRDSKHPKYCIELSAQPVGLIRVHKVLVVGSTQDSLHGFTHKGKKLWTVQMPAAILTMNLLEQHSRGLQAVMAGLANGEVRIYRDKALLNVIHTPDAVTSLCFGRYGREDNTLIMTTRGGGLIIKILKRTAVFVEGGSEVGPPPAQAMKLNVPRKTRLYVDQTLREREAGTAMHRAFQTDLYLLRLRAARAYLQALESSLSPLSKTAREPLKLHAVVQGLGPTFKLTLHLQNTSTTRPVLGLLVCFLYNEALYSLPRAFFKVPLLVPGLNYPLETFVESLSNKGISDIIKVLVLREGQSAPLLSAHVNMPGSEGLAAA [T480K]
MAAASSSDSDACGAESNEANSKWLDAHYDPMANIHTFSACLALADLHGDGEYKLVVGDLGPGGQQPRLKVLKGPLVMTESPLPALPAAAATFLMEQHEPRTPALALASGPCVYVYKNLRPYFKFSLPQLPPNPLEQDLWNQAKEDRIDPLTLKEMLESIRETAEEPLSIQSLRFLQLELSEMEAFVNQHKSNSIKRQTVITTMTTLKKNLADEDAVSCLVLGTENKELLVLDPEAFTILAKMSLPSVPVFLEVSGQFDVEFRLAAACRNGNIYILRRDSKHPKYCIELSAQPVGLIRVHKVLVVGSTQDSLHGFTHKGKKLWTVQMPAAILTMNLLEQHSRGLQAVMAGLANGEVRIYRDKALLNVIHTPDAVTSLCFGRYGREDNTLIMTTRGGGLIIKILKRTAVFVEGGSEVGPPPAQAMKLNVPRKTRLYVDQTLREREAGTAMHRAFQTDLYLLRLRAARAYLQALESSLSPLSTAAREPLKLHAVVQGLGPTFKLTLHLQNTSTTRPVLGLLVCFLYNEALYSLPRAFFKVPLLVPGLNYPLETFVESLSNKGISDIIKVLVLREGQSAPLLSAHVNMPGSEGLAAA [T481A]
MAAASSSDSDACGAESNEANSKWLDAHYDPMANIHTFSACLALADLHGDGEYKLVVGDLGPGGQQPRLKVLKGPLVMTESPLPALPAAAATFLMEQHEPRTPALALASGPCVYVYKNLRPYFKFSLPQLPPNPLEQDLWNQAKEDRIDPLTLKEMLESIRETAEEPLSIQSLRFLQLELSEMEAFVNQHKSNSIKRQTVITTMTTLKKNLADEDAVSCLVLGTENKELLVLDPEAFTILAKMSLPSVPVFLEVSGQFDVEFRLAAACRNGNIYILRRDSKHPKYCIELSAQPVGLIRVHKVLVVGSTQDSLHGFTHKGKKLWTVQMPAAILTMNLLEQHSRGLQAVMAGLANGEVRIYRDKALLNVIHTPDAVTSLCFGRYGREDNTLIMTTRGGGLIIKILKRTAVFVEGGSEVGPPPAQAMKLNVPRKTRLYVDQTLREREAGTAMHRAFQTDLYLLRLRAARAYLQALESSLSPLSTEAREPLKLHAVVQGLGPTFKLTLHLQNTSTTRPVLGLLVCFLYNEALYSLPRAFFKVPLLVPGLNYPLETFVESLSNKGISDIIKVLVLREGQSAPLLSAHVNMPGSEGLAAA [T481E]
MAAASSSDSDACGAESNEANSKWLDAHYDPMANIHTFSACLALADLHGDGEYKLVVGDLGPGGQQPRLKVLKGPLVMTESPLPALPAAAATFLMEQHEPRTPALALASGPCVYVYKNLRPYFKFSLPQLPPNPLEQDLWNQAKEDRIDPLTLKEMLESIRETAEEPLSIQSLRFLQLELSEMEAFVNQHKSNSIKRQTVITTMTTLKKNLADEDAVSCLVLGTENKELLVLDPEAFTILAKMSLPSVPVFLEVSGQFDVEFRLAAACRNGNIYILRRDSKHPKYCIELSAQPVGLIRVHKVLVVGSTQDSLHGFTHKGKKLWTVQMPAAILTMNLLEQHSRGLQAVMAGLANGEVRIYRDKALLNVIHTPDAVTSLCFGRYGREDNTLIMTTRGGGLIIKILKRTAVFVEGGSEVGPPPAQAMKLNVPRKTRLYVDQTLREREAGTAMHRAFQTDLYLLRLRAARAYLQALESSLSPLSTKAREPLKLHAVVQGLGPTFKLTLHLQNTSTTRPVLGLLVCFLYNEALYSLPRAFFKVPLLVPGLNYPLETFVESLSNKGISDIIKVLVLREGQSAPLLSAHVNMPGSEGLAAA [T481K]
MAAASSSDSDACGAESNEANSKWLDAHYDPMANIHTFSACLALADLHGDGEYKLVVGDLGPGGQQPRLKVLKGPLVMTESPLPALPAAAATFLMEQHEPRTPALALASGPCVYVYKNLRPYFKFSLPQLPPNPLEQDLWNQAKEDRIDPLTLKEMLESIRETAEEPLSIQSLRFLQLELSEMEAFVNQHKSNSIKRQTVITTMTTLKKNLADEDAVSCLVLGTENKELLVLDPEAFTILAKMSLPSVPVFLEVSGQFDVEFRLAAACRNGNIYILRRDSKHPKYCIELSAQPVGLIRVHKVLVVGSTQDSLHGFTHKGKKLWTVQMPAAILTMNLLEQHSRGLQAVMAGLANGEVRIYRDKALLNVIHTPDAVTSLCFGRYGREDNTLIMTTRGGGLIIKILKRTAVFVEGGSEVGPPPAQAMKLNVPRKTRLYVDQTLREREAGTAMHRAFQTDLYLLRLRAARAYLQALESSLSPLSTTEREPLKLHAVVQGLGPTFKLTLHLQNTSTTRPVLGLLVCFLYNEALYSLPRAFFKVPLLVPGLNYPLETFVESLSNKGISDIIKVLVLREGQSAPLLSAHVNMPGSEGLAAA [A482E]
MAAASSSDSDACGAESNEANSKWLDAHYDPMANIHTFSACLALADLHGDGEYKLVVGDLGPGGQQPRLKVLKGPLVMTESPLPALPAAAATFLMEQHEPRTPALALASGPCVYVYKNLRPYFKFSLPQLPPNPLEQDLWNQAKEDRIDPLTLKEMLESIRETAEEPLSIQSLRFLQLELSEMEAFVNQHKSNSIKRQTVITTMTTLKKNLADEDAVSCLVLGTENKELLVLDPEAFTILAKMSLPSVPVFLEVSGQFDVEFRLAAACRNGNIYILRRDSKHPKYCIELSAQPVGLIRVHKVLVVGSTQDSLHGFTHKGKKLWTVQMPAAILTMNLLEQHSRGLQAVMAGLANGEVRIYRDKALLNVIHTPDAVTSLCFGRYGREDNTLIMTTRGGGLIIKILKRTAVFVEGGSEVGPPPAQAMKLNVPRKTRLYVDQTLREREAGTAMHRAFQTDLYLLRLRAARAYLQALESSLSPLSTTKREPLKLHAVVQGLGPTFKLTLHLQNTSTTRPVLGLLVCFLYNEALYSLPRAFFKVPLLVPGLNYPLETFVESLSNKGISDIIKVLVLREGQSAPLLSAHVNMPGSEGLAAA [A482K]
MAAASSSDSDACGAESNEANSKWLDAHYDPMANIHTFSACLALADLHGDGEYKLVVGDLGPGGQQPRLKVLKGPLVMTESPLPALPAAAATFLMEQHEPRTPALALASGPCVYVYKNLRPYFKFSLPQLPPNPLEQDLWNQAKEDRIDPLTLKEMLESIRETAEEPLSIQSLRFLQLELSEMEAFVNQHKSNSIKRQTVITTMTTLKKNLADEDAVSCLVLGTENKELLVLDPEAFTILAKMSLPSVPVFLEVSGQFDVEFRLAAACRNGNIYILRRDSKHPKYCIELSAQPVGLIRVHKVLVVGSTQDSLHGFTHKGKKLWTVQMPAAILTMNLLEQHSRGLQAVMAGLANGEVRIYRDKALLNVIHTPDAVTSLCFGRYGREDNTLIMTTRGGGLIIKILKRTAVFVEGGSEVGPPPAQAMKLNVPRKTRLYVDQTLREREAGTAMHRAFQTDLYLLRLRAARAYLQALESSLSPLSTTAAEPLKLHAVVQGLGPTFKLTLHLQNTSTTRPVLGLLVCFLYNEALYSLPRAFFKVPLLVPGLNYPLETFVESLSNKGISDIIKVLVLREGQSAPLLSAHVNMPGSEGLAAA [R483A]
MAAASSSDSDACGAESNEANSKWLDAHYDPMANIHTFSACLALADLHGDGEYKLVVGDLGPGGQQPRLKVLKGPLVMTESPLPALPAAAATFLMEQHEPRTPALALASGPCVYVYKNLRPYFKFSLPQLPPNPLEQDLWNQAKEDRIDPLTLKEMLESIRETAEEPLSIQSLRFLQLELSEMEAFVNQHKSNSIKRQTVITTMTTLKKNLADEDAVSCLVLGTENKELLVLDPEAFTILAKMSLPSVPVFLEVSGQFDVEFRLAAACRNGNIYILRRDSKHPKYCIELSAQPVGLIRVHKVLVVGSTQDSLHGFTHKGKKLWTVQMPAAILTMNLLEQHSRGLQAVMAGLANGEVRIYRDKALLNVIHTPDAVTSLCFGRYGREDNTLIMTTRGGGLIIKILKRTAVFVEGGSEVGPPPAQAMKLNVPRKTRLYVDQTLREREAGTAMHRAFQTDLYLLRLRAARAYLQALESSLSPLSTTAEEPLKLHAVVQGLGPTFKLTLHLQNTSTTRPVLGLLVCFLYNEALYSLPRAFFKVPLLVPGLNYPLETFVESLSNKGISDIIKVLVLREGQSAPLLSAHVNMPGSEGLAAA [R483E]
MAAASSSDSDACGAESNEANSKWLDAHYDPMANIHTFSACLALADLHGDGEYKLVVGDLGPGGQQPRLKVLKGPLVMTESPLPALPAAAATFLMEQHEPRTPALALASGPCVYVYKNLRPYFKFSLPQLPPNPLEQDLWNQAKEDRIDPLTLKEMLESIRETAEEPLSIQSLRFLQLELSEMEAFVNQHKSNSIKRQTVITTMTTLKKNLADEDAVSCLVLGTENKELLVLDPEAFTILAKMSLPSVPVFLEVSGQFDVEFRLAAACRNGNIYILRRDSKHPKYCIELSAQPVGLIRVHKVLVVGSTQDSLHGFTHKGKKLWTVQMPAAILTMNLLEQHSRGLQAVMAGLANGEVRIYRDKALLNVIHTPDAVTSLCFGRYGREDNTLIMTTRGGGLIIKILKRTAVFVEGGSEVGPPPAQAMKLNVPRKTRLYVDQTLREREAGTAMHRAFQTDLYLLRLRAARAYLQALESSLSPLSTTAKEPLKLHAVVQGLGPTFKLTLHLQNTSTTRPVLGLLVCFLYNEALYSLPRAFFKVPLLVPGLNYPLETFVESLSNKGISDIIKVLVLREGQSAPLLSAHVNMPGSEGLAAA [R483K]
MAAASSSDSDACGAESNEANSKWLDAHYDPMANIHTFSACLALADLHGDGEYKLVVGDLGPGGQQPRLKVLKGPLVMTESPLPALPAAAATFLMEQHEPRTPALALASGPCVYVYKNLRPYFKFSLPQLPPNPLEQDLWNQAKEDRIDPLTLKEMLESIRETAEEPLSIQSLRFLQLELSEMEAFVNQHKSNSIKRQTVITTMTTLKKNLADEDAVSCLVLGTENKELLVLDPEAFTILAKMSLPSVPVFLEVSGQFDVEFRLAAACRNGNIYILRRDSKHPKYCIELSAQPVGLIRVHKVLVVGSTQDSLHGFTHKGKKLWTVQMPAAILTMNLLEQHSRGLQAVMAGLANGEVRIYRDKALLNVIHTPDAVTSLCFGRYGREDNTLIMTTRGGGLIIKILKRTAVFVEGGSEVGPPPAQAMKLNVPRKTRLYVDQTLREREAGTAMHRAFQTDLYLLRLRAARAYLQALESSLSPLSTTARAPLKLHAVVQGLGPTFKLTLHLQNTSTTRPVLGLLVCFLYNEALYSLPRAFFKVPLLVPGLNYPLETFVESLSNKGISDIIKVLVLREGQSAPLLSAHVNMPGSEGLAAA [E484A]
